Values quoted from earlier work, collected in PMC2706832.

Columns and labels:
CCL7 (Homo sapiens) = CCL7 (Homo sapiens) (UniProt P80098)
[1] = molecular target: CCL14 9-74 (Homo sapiens) (UniProt Q16627); assay: competition with CCL5
CCL14 9-74 (Homo sapiens), sequence (Q16627 9-74): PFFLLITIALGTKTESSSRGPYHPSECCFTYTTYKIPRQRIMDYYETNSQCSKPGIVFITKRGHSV

CCR1, sequence (P32246 whole entry): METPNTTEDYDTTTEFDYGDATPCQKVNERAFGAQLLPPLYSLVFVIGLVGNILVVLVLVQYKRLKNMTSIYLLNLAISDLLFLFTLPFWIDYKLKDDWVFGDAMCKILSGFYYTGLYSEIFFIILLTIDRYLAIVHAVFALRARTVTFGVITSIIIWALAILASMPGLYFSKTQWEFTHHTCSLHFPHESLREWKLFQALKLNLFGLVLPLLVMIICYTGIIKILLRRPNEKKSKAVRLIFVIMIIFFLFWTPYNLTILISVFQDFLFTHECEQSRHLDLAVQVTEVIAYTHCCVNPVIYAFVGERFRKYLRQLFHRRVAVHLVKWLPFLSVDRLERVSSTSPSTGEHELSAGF
CCL7 (Homo sapiens), sequence (P80098 24-99): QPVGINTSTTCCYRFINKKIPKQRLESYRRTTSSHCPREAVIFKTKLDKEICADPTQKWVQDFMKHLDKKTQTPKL

## CCR1 (from UniProt P32246)
CCL7 (Homo sapiens)
  Kd: 1 nM
[1]
  Ki: 0.023 nM
